Test results from IntAct's records for PubMed 12074588.

Biological target: nck1_human NCK1 (UniProt P16333)

| Substance | effect of a mutation on the interaction |
| --- | --- |
| BDNF/NT-3 growth factors receptor (Rattus norvegicus (Rat)), Q63604 Y701F | with no effect |
| BDNF/NT-3 growth factors receptor (Rattus norvegicus (Rat)), Q63604 Y706F | disrupting interaction strength |
| BDNF/NT-3 growth factors receptor (Rattus norvegicus (Rat)), Q63604 Y726F | with no effect |
| BDNF/NT-3 growth factors receptor (Rattus norvegicus (Rat)), Q63604 Y782F | disrupting interaction strength |
| BDNF/NT-3 growth factors receptor (Rattus norvegicus (Rat)), Q63604 Y816F | with no effect |

Other lines, results leading:

| effect of a mutation on the interaction | Substance |
| --- | --- |
| disrupting interaction strength | BDNF/NT-3 growth factors receptor (Rattus norvegicus (Rat)), Q63604 K571F |
| with no effect | BDNF/NT-3 growth factors receptor (Rattus norvegicus (Rat)), Q63604 Y515F |
| disrupting interaction strength | BDNF/NT-3 growth factors receptor (Rattus norvegicus (Rat)), Q63604 Y705F |
